Data reported in patent US20180362585A1 (Bicycle, published 2018).
Read-outs that look alike come from different tables or passages of the source. Numbered stars: 1 amine (or outer) side, 2 acyl side, 3 side chain; on linkers, the order of the positions; unused ones are H or OH. Bridge positions count the residues as written; N and C are the ends. Ends that are not written are not given here. TBMB = c1c(C[*:1])cc(C[*:3])cc1C[*:2]

Experiments:
[1] = target: T1, human plasma Kallikrein (human, UniProt P03952 20-638); assay: enzyme inhibition
T1 construct: also called hPK; human PK
T1 sequence (P03952 20-638 limits assumed): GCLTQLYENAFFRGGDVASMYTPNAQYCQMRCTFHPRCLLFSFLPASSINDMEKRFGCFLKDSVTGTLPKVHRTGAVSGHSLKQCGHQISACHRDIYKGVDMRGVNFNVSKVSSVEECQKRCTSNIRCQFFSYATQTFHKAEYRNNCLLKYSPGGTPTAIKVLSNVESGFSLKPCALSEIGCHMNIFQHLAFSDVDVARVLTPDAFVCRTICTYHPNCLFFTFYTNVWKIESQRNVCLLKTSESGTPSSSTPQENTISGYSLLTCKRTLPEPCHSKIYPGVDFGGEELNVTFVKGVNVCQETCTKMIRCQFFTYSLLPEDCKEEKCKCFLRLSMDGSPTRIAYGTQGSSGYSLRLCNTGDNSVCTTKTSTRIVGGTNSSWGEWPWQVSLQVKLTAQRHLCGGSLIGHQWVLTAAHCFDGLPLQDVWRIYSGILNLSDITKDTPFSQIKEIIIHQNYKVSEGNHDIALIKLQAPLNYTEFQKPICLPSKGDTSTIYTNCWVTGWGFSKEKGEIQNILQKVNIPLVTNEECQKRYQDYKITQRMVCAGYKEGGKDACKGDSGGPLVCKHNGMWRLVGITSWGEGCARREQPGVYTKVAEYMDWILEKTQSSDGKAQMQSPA
Method: (§1) Functional enzyme assays were conducted in 10 mM Tris HCl, 150 mM NaCl, 10 mM MgCl2, 1 mM CaCl₂) and 1 mg/mL BSA (all Sigma UK) pH7.4 at 25° C. in solid black 96 well plates. […] Release of AMC was measured using a Pherastar FS (BMG Labtech), excitation 360 nm, emission 460 nm. The rate of the linear phase of the reaction, typically 5 to 45 minutes, was calculated in MARS data analysis software (BMG labtech). The rate was then used to calculate the IC50 and Ki in Prism (GraphPad).
Crucially, such modifications should not affect the potency against human or rat Kallikrein. An initial exploration regarding the role of the WPAR (SEQ ID No. 19) sequence/pharmacophore (FIG. 9, 10) was performed by replacing W₂P₃ with A₂A₃ or A₂Q₃ and by scrambling parts or the entire first loop of the bicycle.

[2] = target: T1, human plasma Kallikrein; assay: enzyme inhibition; remark: listed apart in the source
Method: as §1

[3] = target: T2, rat plasma Kallikrein (rat, UniProt P14272 391-638, limits assumed); assay: enzyme inhibition
T2 construct: domain: catalytic domain; also called rPK; rat PK
T2 sequence (P14272 391-638 limits assumed): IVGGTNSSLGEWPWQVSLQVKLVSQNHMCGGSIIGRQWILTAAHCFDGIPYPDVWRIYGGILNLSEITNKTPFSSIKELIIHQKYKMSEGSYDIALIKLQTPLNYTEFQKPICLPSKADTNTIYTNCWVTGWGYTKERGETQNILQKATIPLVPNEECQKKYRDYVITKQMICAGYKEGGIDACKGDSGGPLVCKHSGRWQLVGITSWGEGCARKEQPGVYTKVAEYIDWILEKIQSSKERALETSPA
Method: as §1

[4] = target: T1, human plasma Kallikrein; assay: enzyme inhibition; ref WT
Method: as §1

B1: Ac-(06-34-18) Scram2 (peptide)
peptide: Ac-CWASPRCLHQDLC-NH2
modifications: linker 1-7-13 via TBMB
SMILES: CC(=O)N[C@H]1CSCc2cc3cc(c2)CSC[C@H](NC(=O)[C@H](CCCNC(=N)N)NC(=O)[C@@H]2CCCN2C(=O)[C@H](CO)NC(=O)[C@H](C)NC(=O)[C@H](Cc2c[nH]c4ccccc24)NC1=O)C(=O)N[C@@H](CC(C)C)C(=O)N[C@@H](Cc1c[nH]cn1)C(=O)N[C@@H](CCC(N)=O)C(=O)N[C@@H](CC(=O)O)C(=O)N[C@@H](CC(C)C)C(=O)N[C@H](C(N)=O)CSC3
Q: For B1, which Ki [1] is on record?
A: 11400 nM

B2: Ac-(06-34-18) Scram1 (peptide)
peptide: Ac-CPSAWRCLHQDLC-NH2
modifications: linker 1-7-13 via TBMB
SMILES: CC(=O)N[C@H]1CSCc2cc3cc(c2)CSC[C@H](NC(=O)[C@H](CCCNC(=N)N)NC(=O)[C@H](Cc2c[nH]c4ccccc24)NC(=O)[C@H](C)NC(=O)[C@H](CO)NC(=O)[C@@H]2CCCN2C1=O)C(=O)N[C@@H](CC(C)C)C(=O)N[C@@H](Cc1c[nH]cn1)C(=O)N[C@@H](CCC(N)=O)C(=O)N[C@@H](CC(=O)O)C(=O)N[C@@H](CC(C)C)C(=O)N[C@H](C(N)=O)CSC3
Q: How did the Ki [1] turn out when B2 was run?
A: 1090 nM

B3: 06-64 T (peptide)
peptide: ACGVPYRCTHQEMCA
modifications: linker 2-8-14 via TBMB; not fully specified (N-terminus, C-terminus)
Q: With B3 as the binder, how does the Ki [2] read?
A: 6.9 nM

B4: Ac-(06-34-18) A2A3 (peptide)
peptide: Ac-CSAAARCLHQDLC-NH2
modifications: linker 1-7-13 via TBMB
SMILES: CC(=O)N[C@H]1CSCc2cc3cc(c2)CSC[C@H](NC(=O)[C@H](CCCNC(=N)N)NC(=O)[C@H](C)NC(=O)[C@H](C)NC(=O)[C@H](C)NC(=O)[C@H](CO)NC1=O)C(=O)N[C@@H](CC(C)C)C(=O)N[C@@H](Cc1c[nH]cn1)C(=O)N[C@@H](CCC(N)=O)C(=O)N[C@@H](CC(=O)O)C(=O)N[C@@H](CC(C)C)C(=O)N[C@H](C(N)=O)CSC3
Q: How did the “fold reduction in binding vs wildtype” value [2] turn out when B4 was run?
A: ~100000 fold

Q: What about the Ki [1] of the same binder?
A: 18500 nM

B5: Ac-(06-34-18) A2Q3 (peptide)
peptide: Ac-CSAQARCLHQDLC-NH2
modifications: linker 1-7-13 via TBMB
SMILES: CC(=O)N[C@H]1CSCc2cc3cc(c2)CSC[C@H](NC(=O)[C@H](CCCNC(=N)N)NC(=O)[C@H](C)NC(=O)[C@H](CCC(N)=O)NC(=O)[C@H](C)NC(=O)[C@H](CO)NC1=O)C(=O)N[C@@H](CC(C)C)C(=O)N[C@@H](Cc1c[nH]cn1)C(=O)N[C@@H](CCC(N)=O)C(=O)N[C@@H](CC(=O)O)C(=O)N[C@@H](CC(C)C)C(=O)N[C@H](C(N)=O)CSC3
Q: Which results are given for B5?
A: fold reduction in binding vs wildtype [2]: ~100000 fold; Ki [1]: 15800 nM

B6: Ac-(06-34-18) Scram4 (peptide)
peptide: Ac-CWARSPCLHQDLC-NH2
modifications: linker 1-7-13 via TBMB
SMILES: CC(=O)N[C@H]1CSCc2cc3cc(c2)CSC[C@H](NC(=O)[C@@H]2CCCN2C(=O)[C@H](CO)NC(=O)[C@H](CCCNC(=N)N)NC(=O)[C@H](C)NC(=O)[C@H](Cc2c[nH]c4ccccc24)NC1=O)C(=O)N[C@@H](CC(C)C)C(=O)N[C@@H](Cc1c[nH]cn1)C(=O)N[C@@H](CCC(N)=O)C(=O)N[C@@H](CC(=O)O)C(=O)N[C@@H](CC(C)C)C(=O)N[C@H](C(N)=O)CSC3
Q: How did the Ki [1] turn out when B6 was run?
A: 67500 nM

B7: 06-61 (peptide)
peptide: ACSWPYRCLHQDYCA
modifications: linker 2-8-14 via TBMB; not fully specified (N-terminus, C-terminus)
Q: With B7 as the binder, how does the Ki [2] read?
A: 5.8 nM

B8: 06-34-01 (peptide)
peptide: ACSWPARCVHQDLCA
modifications: linker 2-8-14 via TBMB; not fully specified (N-terminus, C-terminus)
Q: How did the IC50 [2] turn out when B8 was run?
A: 0.15 nM

Q: What about the IC50 [3] of the same binder?
A: 6.12 nM

B9: 06-34-04 (peptide)
peptide: ACRWPARCMHQDLCA
modifications: linker 2-8-14 via TBMB; not fully specified (N-terminus, C-terminus)
Q: Which results are given for B9?
A: IC50 [2]: 0.075 nM; IC50 [3]: 0.56 nM

B10: 06-34-18 (01 + 05) (peptide)
peptide: ACSWPARCLHQDLCA
modifications: linker 2-8-14 via TBMB; not fully specified (N-terminus, C-terminus)
Q: What does the source list for B10?
A: IC50 [2]: 0.07 nM; Ki [2]: 0.04 nM; IC50 [3]: 0.56 nM

B11: 06-34-05 (peptide)
peptide: ACRWPARCLHQDLCA
modifications: linker 2-8-14 via TBMB; not fully specified (N-terminus, C-terminus)
Q: What does the source list for B11?
A: IC50 [2]: 0.076 nM; IC50 [3]: 0.62 nM

B12: 06-34-17 (01 + 04) (peptide)
peptide: ACSWPARCMHQDLCA
modifications: linker 2-8-14 via TBMB; not fully specified (N-terminus, C-terminus)
Q: How did the IC50 [2] turn out when B12 was run?
A: 0.073 nM

Q: And the IC50 [3]?
A: 0.44 nM

B13: 06-34-03 (01 + 02) (peptide)
peptide: ACSWPARCTHQDLCA
modifications: linker 2-8-14 via TBMB; not fully specified (N-terminus, C-terminus)
Q: Which results are given for B13?
A: IC50 [2]: 0.082 nM; IC50 [3]: 0.87 nM

B14: 06-34-02 (peptide)
peptide: ACRWPARCTHQDLCA
modifications: linker 2-8-14 via TBMB; not fully specified (N-terminus, C-terminus)
Q: For B14, which IC50 [2] is on record?
A: 0.16 nM

Q: And the IC50 [3]?
A: 1.09 nM

B15: Ac-(06-34-18) Scram3 (peptide)
peptide: Ac-CAPWSRCLHQDLC-NH2
modifications: linker 1-7-13 via TBMB
SMILES: CC(=O)N[C@H]1CSCc2cc3cc(c2)CSC[C@H](NC(=O)[C@H](CCCNC(=N)N)NC(=O)[C@H](CO)NC(=O)[C@H](Cc2c[nH]c4ccccc24)NC(=O)[C@@H]2CCCN2C(=O)[C@H](C)NC1=O)C(=O)N[C@@H](CC(C)C)C(=O)N[C@@H](Cc1c[nH]cn1)C(=O)N[C@@H](CCC(N)=O)C(=O)N[C@@H](CC(=O)O)C(=O)N[C@@H](CC(C)C)C(=O)N[C@H](C(N)=O)CSC3
Q: How did the Ki [1] turn out when B15 was run?
A: 1890 nM

B16: Ac-(06-34-18) Phe2 Tyr4 Thr7 Thr8 Glu9 (peptide)
peptide: Ac-CSFPYRCLTTELC-NH2
modifications: linker 1-7-13 via TBMB
SMILES: CC(=O)N[C@H]1CSCc2cc3cc(c2)CSC[C@H](NC(=O)[C@H](CCCNC(=N)N)NC(=O)[C@H](Cc2ccc(O)cc2)NC(=O)[C@@H]2CCCN2C(=O)[C@H](Cc2ccccc2)NC(=O)[C@H](CO)NC1=O)C(=O)N[C@@H](CC(C)C)C(=O)N[C@@H]([C@@H](C)O)C(=O)N[C@@H]([C@@H](C)O)C(=O)N[C@@H](CCC(=O)O)C(=O)N[C@@H](CC(C)C)C(=O)N[C@H](C(N)=O)CSC3
notes: also called loop 2 LTTEL
Q: For B16, which “F (Kivar/KiWT)” value [4] is on record?
A: 193 fold

Q: And the Ki [2]?
A: 81 nM
